For one data set, the target named is T1, Lp-PLA2 (Homo sapiens, UniProt Q13093).
T1 construct: Unless otherwise indicated all plasma samples were collected from human and are human plasma; from tissue; host or cells: human blood plasma (EDTA)
T1 sequence (Q13093 22-441): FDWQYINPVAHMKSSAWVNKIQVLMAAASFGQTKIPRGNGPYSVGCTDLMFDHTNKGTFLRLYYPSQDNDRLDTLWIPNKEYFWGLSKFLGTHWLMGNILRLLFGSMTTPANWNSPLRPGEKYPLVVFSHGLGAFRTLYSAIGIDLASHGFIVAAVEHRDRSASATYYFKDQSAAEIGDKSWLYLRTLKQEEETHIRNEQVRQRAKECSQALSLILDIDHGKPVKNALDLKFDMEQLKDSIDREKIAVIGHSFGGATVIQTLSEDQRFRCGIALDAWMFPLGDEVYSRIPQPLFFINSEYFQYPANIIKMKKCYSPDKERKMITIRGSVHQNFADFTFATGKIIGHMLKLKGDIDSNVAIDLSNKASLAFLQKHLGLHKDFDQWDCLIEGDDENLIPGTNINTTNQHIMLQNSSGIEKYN
Kind of data set: Auto PAF AH assay (Azwell kit, Olympus Au640). The class given is biochemical. The protocol:
The Auto PAF AH assay kit, manufactured by Azwell (Osaka, Japan), is commercially available in the United States through Karlan Research Products Corporation (Santa Rosa, Calif.).
Azwell Auto PAF-AH Assay Kit:
Prepare the following reagents: • R1: Use this buffer solution as supplied in Azwell Auto PAF AH assay kit. Store at 4° C. Protect from light. • R2: Prepare the R2 working solution by mixing R2A and R2B (supplied in Azwell Auto PAF AH assay kit) in the proportion of 19:1. Store at 4° C. Protect from light. • 3. […] Briefly centrifuge to spin down fibrin clots/particles in the plasma. • 4. Place Sarstedt tubes containing plasma samples onto sample tubes that fit the instrument. Run plasma samples through the Au640 analyzer. After choosing the PAF AH assay program, the analytical procedure described below is performed automatically: • Test sample (2 μL)+R1 (240 μL), 37° C., 5 minutes [0-5 minutes] • Add R2 (80 μL), 37° C., 5 minutes [5-10 minutes] • Measure the absorbance at 410 nm and 480 nm [6-8 minutes] • Calculate PAF AH activity (IU/L) • 5.

The nature of data set [1]: Plasma level of inhibitor in clinical studies (pharmacokinetics). The note with it: human subjects, administered in vivo.
In data set [2] the target is T2, recombinant human Lp-PLA2 protein (hrLp-PLA2) (Homo sapiens, UniProt Q13093).
T2 construct: made in house
T2 sequence (Q13093 22-441): T1 sequence (Q13093 22-441)
In words: Modified colorimetric assay of recombinant human Lp-PLA2 protein (dynamic range). The class given is biochemical. Conditions: for Activity (assay dynamic range): hrLp-PLA2 14.6-3750 ng/ml, […] substrate/45 μL. The protocol: (§1) Assay dynamic range was defined by using both recombinant human Lp-PLA2 protein (hrLp-PLA2) generated in-house and Lp-PLA2 protein purified from human plasma in-house.
hrLp-PLA2 was serially diluted and 25 μL of each diluted hrLp-PLA2 were assayed by a modified drug-sensitive colorimetric assay (data shown in Table 10). […]. (see Table 10).
[…]. Therefore, such conditions with lower substrate concentration and higher sample volume could be used when higher measurable in vivo inhibition is desired while the range of Lp-PLA2 activity for test samples is limited or could be compromised. […]. Earlier and shorter reaction time could be considered to use in activity calculation to improve assay dynamic range when such conditions are used.

Data set [3] addresses T3, hLp-PLA2 purified from plasma (Homo sapiens, UniProt Q13093).
T3 construct: Lp-PLA2 protein purified from human plasma in-house; from tissue; host or cells: human plasma, purified in-house
T3 sequence (Q13093 22-441): T1 sequence (Q13093 22-441)
In words: Modified colorimetric assay of Lp-PLA2 purified from human plasma (dynamic range). The class given is biochemical. The protocol:
as §1
hLp-PLA2 purified from plasma was also serially diluted and 25 pt of each dilution were assayed by a modified drug-sensitive colorimetric assay (data shown in Table 11). […] The relatively lower upper limit of the dynamic range determined by purified hLp-PLA2 may be resulted from interference factors possibly present in the purified product and/or introduced during purification process. Limited availability of such purified protein prevents further investigation.

Where “and” joins values, the source holds several entries; their conditions need not be identical. Equal entries are not always repeated.

With `CCCCCCCCCCCCCC(=O)OCC(COP(=O)([O-])OCC[N+](C)(C)C)OC(=O)CCC(=O)Oc1ccc([N+](=O)[O-])cc1` (stereo not shown) [substrate, reference compound], at Lp-PLA2 (plasma as the enzyme source, Auto PAF AH protocol), the Km is ~200 µM and 200 µM.
Molecule `CCN(CC)CCN(Cc1ccc(-c2ccc(C(F)(F)F)cc2)cc1)C(=O)Cn1c(SCc2ccc(F)cc2)nc(=O)c2c1CCC2` [Formula II, 1-(N-(2-(Diethylamino)ethyl)-N-(4-(4-trifluoromethylphenyl)benzyl)-aminocarbonylmethyl)-2-(4-fluorobenzyl)thio-5,6-trimethylenepyrimidin-4-one bitartrate] showed a peak plasma level in data set [1] of 90 ng/mL.
For `COCCN1CCC(N(Cc2ccc(-c3ccc(C(F)(F)F)cc3)cc2)C(=O)Cn2c(SCc3cccc(F)c3F)cc(=O)c3ccccc32)CC1` [Formula I], at Lp-PLA2 (four subjects, 80-240 mg in vivo), the “drug inhibition by Auto PAF AH assay” value is “failed to indicate drug inhibition”. Further, at Lp-PLA2 (six drug-treated human subjects, 120-240 mg in vivo), the “Lp-PLA2 inhibition measured by Auto PAF AH assay” value is “not apparent”.

B1: hrLp-PLA2: recombinant human Lp-PLA2 protein generated in-house (protein, UniProt Q13093 22-441, looked up)
Platelet-activating factor …: T1 sequence (Q13093 22-441)
As to B1, the Activity in data set [2] (hrLp-PLA2 4.88 ng/mL, […] Substrate/45 μL) turned out to be 2.71 nmol/min/mL; in data set [2] (hrLp-PLA2 9.77 ng/mL, […] Substrate/45 μL) it was 5.13 nmol/min/mL; in data set [2] (hrLp-PLA2 19.53 ng/mL, […] Substrate/45 μL), 9.27 nmol/min/mL; in data set [2] (hrLp-PLA2 39.06 ng/mL, […] Substrate/45 μL), 17.81 nmol/min/mL; in data set [2] (hrLp-PLA2 78.13 ng/mL, […] Substrate/45 μL) it was 30.16 nmol/min/mL; in data set [2] (hrLp-PLA2 156.25 ng/mL, […] Substrate/45 μL), 51.62 nmol/min/mL. In addition, the Activity in data set [2] (hrLp-PLA2 312.50 ng/mL, […] Substrate/45 μL) stood at 84.14 nmol/min/mL; in data set [2] (hrLp-PLA2 625.00 ng/mL, […] Substrate/45 μL), 109.44 nmol/min/mL; in data set [2] (hrLp-PLA2 1250.00 ng/mL, […] Substrate/45 μL), 93.90 nmol/min/mL; in data set [2] (hrLp-PLA2 1650 ng/ml, 25 uL assayed), 30.0 nmol/min/mL; in data set [2] (hrLp-PLA2 3300 ng/ml, 25 uL assayed), 69.7 nmol/min/mL; in data set [2] (hrLp-PLA2 6600 ng/ml, 25 uL assayed) it was 169.0 nmol/min/mL. Moreover, the Activity in data set [2] (hrLp-PLA2 14666 ng/ml, 25 uL assayed) turned out to be 413.7 nmol/min/mL. The “Activity (assay dynamic range)” value in data set [2] (reaction time used for calculation 30 sec-0) is 3.4 to 210 nmol/min/mL; in data set [2] (reaction time used for calculation 1 min-0), 3.2 to 196.5 nmol/min/mL.

B2: Purified hLp-PLA2 (protein, UniProt Q13093 22-441, looked up)
Platelet-activating factor …: T1 sequence (Q13093 22-441)
On to B2, for which the Activity in data set [3] (Purified hLp-PLA2 6.25 ng/ml) worked out at 2.47 nmol/min/mL; in data set [3] (Purified hLp-PLA2 12.50 ng/ml), 5.06 nmol/min/mL; in data set [3] (Purified hLp-PLA2 50.00 ng/ml), 25.68 nmol/min/mL; in data set [3] (Purified hLp-PLA2 100.00 ng/ml), 54.34 nmol/min/mL; in data set [3] (Purified hLp-PLA2 200.00 ng/ml), 119.34 nmol/min/mL; in data set [3] (Purified hLp-PLA2 400.00 ng/ml), 212.95 nmol/min/mL. Besides, the Activity stood at 273.60 nmol/min/mL in data set [3] (Purified hLp-PLA2 600.00 ng/ml), 324.85 nmol/min/mL in data set [3] (Purified hLp-PLA2 800.00 ng/ml) and 338.51 nmol/min/mL in data set [3] (Purified hLp-PLA2 1000.00 ng/ml).

For orientation: Km means the concentration of substrate that gives half-maximal velocity.

These data come from patent US8609357B2, “Methods for detecting LP-PLA2 activity and inhibition of LP-PLA2 activity” (Glaxo Group Limited, priority 2004, dated 2013).
